In assay [1] the target is N. plumbaginifolia ALS large subunit from plasmid pMTDRALS (Nicotiana plumbaginifolia). Nature of the assay: cell-based or functional assay.
Assay [2] has as its target free Arabidopsis thaliana ALS large subunit released from GST-LSU by thrombin (Arabidopsis thaliana) (UniProt P17597). Nature of the assay: cell-based or functional assay.
Assay [3] concerns the target GST-LSU: A. thaliana ALS large subunit expressed as a glutathione-S-transferase fusion protein from plasmid pGEX-OCM2 (Arabidopsis thaliana) (UniProt P17597). In words: cell-based or functional assay.
Assay [4] deals with Nicotiana plumbaginifolia acetolactate synthase (ALS) holoenzyme: N. plumbaginifolia LSU (encoded by pMTDRALS; ALS10 cDNA SEQ ID NO:42, predicted polypeptide …). Nature of the assay: Inhibition of reconstituted plant ALS holoenzyme by herbicides (acetoin detection, microtiter plate). The format is biochemical. Conditions: holoenzyme (LSU + GST-SSU, thrombin cleaved); sodium pyruvate started (10 μL of 500 mM per well); pH 7.6; 37° C., 30 min; read-out: I50. The method, then:
The plasmid pSSU Bbs/Bam was digested to completion with Bbs I and Xho I and the digestion products were separated by electrophoresis using a […] agarose gel and the 1.35 kbp Bbs I/Xho I fragment was recovered from the gel. Three hundred ng of this DNA was ligated with 1 μg of the plasmid pGEX-2TM that had been digested to completion with BamH I and Xho I and dephosphorylated as described above. The ligation reaction was diluted five fold with H2O and used to transform competent Max Efficiency E. coli DH5α as described above. […] This plasmid was designated pGEX-SSU.
The plasmid ALS10 that contains a full length cDNA copy of the Nicotiana plumbaginifolia ALS gene in the plasmid vector pBluescript was used as the source of the ALS coding region for pMTDRALS. The sequence of this cDNA is shown in SEQ ID NO:42. ALS10 was digested to completion with Xho I and Eco0109I, and the digestion products were separated by agarose gel electrophoresis. […] The plates were incubated overnight at 37° C. and plasmids isolated from kanamycin-resistant bacterial colonies were analyzed for the presence of the insert encoding the ALS large subunit by double digestion with Nde I and Xho I. One such plasmid, designated pMTDRALS was then transformed into E. coli BL21(DE3) using methods known to those skilled in the art. […]

With “free N. plumbaginifolia ALS small subunit released from Trx-HIS/SSU by thrombin”, the Specific Activity after thrombin addition (units/mg LSU), ALS enzyme assay in assay [1] is 6.5 units/mg LSU; in assay [2], 1.1 units/mg LSU. Moreover, the fold increase in specific activity (sample 2 against sample 1, after thrombin) in assay [2] is above 20 fold.
For “bovine serum albumin (from UniProt P02769 25-607)”, the figures for the Specific Activity before thrombin addition (units/mg LSU), ALS enzyme assay in assay [3] and in assay [1] were 0.3 units/mg LSU and 1.1 units/mg LSU, respectively. The Specific Activity after thrombin addition (units/mg LSU), ALS enzyme assay was 0.4 units/mg LSU in assay [1] and 0.04 units/mg LSU in assay [2].
In assay [3], “Trx-HIS/SSU: N. plumbaginifolia acetolactate synthase small subunit expressed as a thioredoxin fusion from plasmid pTrx-HIS/SSU (from UniProt P0AA25 1-109)” came in with a Specific Activity before thrombin addition (units/mg LSU), ALS enzyme assay of 0.9 units/mg LSU and a fold increase in specific activity (sample 2 against sample 1, before thrombin) of 3 fold. Further, in assay [1], the Specific Activity before thrombin addition (units/mg LSU), ALS enzyme assay was 5.5 units/mg LSU and the fold increase in specific activity (sample 4 against sample 3, before thrombin) worked out at 5 fold.
Take `CCc1cnc(C2=NC(C)(C(C)C)C(=O)N2)c(C(=O)O)c1` (stereo not shown) [imezethapyr]: the IC50 in assay [4] was 4 µM.
Same read-out and setting: the same measure for `CC(C)C1(C)N=C(c2nc3ccccc3cc2C(=O)O)NC1=O` (stereo not shown) [imazequin]: 0.8 µM.

(Values after patent US20010044939A1, “Small subunit of plant acetolactate synthase” (priority 2000, published 2001).)
